For series [1], the target named is NikS (Streptomyces tendae, UniProt Q9F2E5). As to the kind of experiment: steady-state amide ligation kinetics, substrate inhibition model. Particulars: HPHT as co-substrate. The format is biochemical.
Substrate in series [2]: N[C@H](C(=O)O)[C@H]1O[C@@H](n2cc(C(=O)O)c(=O)[nH]c2=O)[C@H](O)[C@@H]1O
As to the kind of experiment: steady-state amide ligation kinetics, Michaelis-Menten fit. The series is classed as biochemical, Streptomyces asoensis. The conditions noted are these: 200 μM CPOAA, 1 mM ATP, 3 mM MgCl2.

Substrate in series [3]: N[C@H](C(=O)O)[C@H]1O[C@@H](n2ccc(=O)[nH]c2=O)[C@H](O)[C@@H]1O
The description is as above. The format is biochemical, Streptomyces asoensis. Particulars: 200 μM CPOAA, 1 mM ATP, 3 mM MgCl2.

Substrate in series [4]: N[C@H](C(=O)O)[C@H]1O[C@@H](n2ccc(=O)[nH]c2=O)[C@H](OP(=O)(O)O)[C@@H]1O
The series is described as above. The format is biochemical, Streptomyces asoensis. Particulars: 200 μM CPOAA, 1 mM ATP, 3 mM MgCl2.

Substrate in series [5]: N[C@H](C(=O)O)[C@H]1O[C@@H](n2ccc(=O)[nH]c2=O)[C@H](OP(=O)(O)O)[C@@H]1O
As to the kind of experiment: steady-state amide ligation kinetics, substrate inhibition model. The format is biochemical, Streptomyces tendae. Particulars: HPHT as co-substrate.

With `N[C@H](C(=O)O)[C@H]1O[C@@H](n2ccc(=O)[nH]c2=O)[C@H](OP(=O)(O)O)[C@@H]1O` [compound 6, AHAP], the Ki in series [1] was determined as 111 ± 38 µM.

B1: PolG (Streptomyces asoensis) (protein)
chain: MFLLLNNKPILHRVPEWFPQARQELIVVSTRSGLGTSAFPELARGFRHLHLVSSLDRPGLEEDLVALCRRFGVRRVLSTGEREVLPAATLRERLGLPGQDVACATAYRDKYTMKSLLTEAGIPVAPMRRLASPADLDAFADEAGFPLVVKSRLSGGSNGTRVLWDGDALTAFTDDWAAGRTAAPDLAEAWVEGDFYHINGLMRDGRILLAQPSYQPYSDWFSVAYDAPGMSGMMPDEDPMSARLRDTAAKVVATMPAVPGVCAFQVEFFHTPDDRLVVCETACRAGGSRMVETHEDTLGVHLHGASLLGQAGRSDQVTIRPTGRRQGYARFPSAHGVLRHLPRRSPLPQTLLYTATGEEGRHYDPATSLGSSVAEIVVSLTGPDTAAELLAVETWWESAVVWQDRRNPVPDRFKSVHRVRPDTRERALHV
With B1, the Michaelis constant (Km) in series [2] amounted to 334 ± 68 µM; in series [3] it was 931 ± 122 µM; in series [4] it was 9.1 ± 0.4 µM. In addition, the kcat in series [2] worked out at 0.0233 ± 0.0067 s⁻¹; in series [3], 0.0112 ± 0.00067 s⁻¹; in series [4] it was 0.0583 ± 0.0033 s⁻¹.

B2: NikS (Streptomyces tendae) (protein)
chain: MKAEQGPFLLLNTKKIVSRLHEWFPDAARELVVVTTKADIPSADISAYARRFLHLEVVPNLWELSDDELLALARRFGVRRILSLGEREVLRAARIRAELGLPGQSLASATAYRDKHVMKSTLAAAGIDVAPMRKFRTNDDLAEFAWKVGFPVVVKELDSGASNGTVVLMDEEDLRALPERATAAPRLAEAWVEGDFYHVNGLMKDGEVVLAVPSRNLYSDWFSVAYDAPTMTGMMPDDHPLSERLRSTARQVVAALPAVPDLCAFHLELFHTADDRVVVCEIACRAGAALVSDVHEAVLGVNFHGASLLGQAGRGDQVEIRPTGERLGFVWFPPAKGVLRALPDTCPLPGTVSYRPCGDIGRRYGSSSGLGRPIAEMVFRLTEPDTGAELRRIEEWWDDNVVWEHRTNAVPDRWKTPRRKPADA
As to B2, in series [5], the Km worked out at 10.9 ± 2.6 µM and the kcat stood at 0.0283 ± 0.005 s⁻¹.

For orientation: Km means the concentration of substrate that gives half-maximal velocity. The term kcat denotes the maximal rate divided by the concentration of active sites.
